Assay results: patent US20230363418A1, “COMPOSITION FOR PREVENTING OR TREATING NEUROPSYCHOLOGIC DISEASE, COMPRISING MANF” (CEFO CO., LTD., priority 2020, published 2023)

Legend:
[1] = system: primary cultured neural progenitor cells; assay: Immunofluorescence staining of Ki67, Nestin, TuJ1 and NeuN in primary cultured neural progenitor cells; format: cell-based, rat; conditions: MANF 30 ng/ml, compared to the control group
Method: To investigate whether or not MANF promotes proliferation of neural progenitor cells, the primary cultured neural progenitor cells are treated with MANF, and then proliferating cells were fluorescently stained with Ki67 antibody, neural progenitor cells with Nestin antibody, immature nerve cells with TuJ1, and mature neural cells with NeuN antibody.
Specifically, the neural progenitor cells were cultured in the same manner as in Example 1, and after removing all the mediums, they were washed once with PBS. After being fixed for 15 minutes with 4% PFA (paraformaldehyde) in PBS, they were washed twice with PBS again. After washing the cover slip to which the cells were attached with PBST, 0.5% Triton X-100-PBST was added thereto and reacted for 10 minutes. Again, blocking was performed with 2% BSA in PBST or 5% normal serum (Normal donkey serum: Jackson lab, 017-000-121, Normal horse serum: Sigma, H0146); and as primary antibodies, rb-Ki67(Abcam, AB15580, 1:500), mo-NeuN(Millipore, MAB377B, 1:500), mo-Tuj1(Sigma, T8660, 1:3000), mo-Flag(Sigma, F1804, 1:500), and mo-Nestin(Millipore, MAB353, 1:200) were added to 2% BSA in PBS and reacted overnight at 4° C. The next day, they were washed with PBST, and then, as secondary antibodies, mo-Alexa 488(Invitrogen, A21202, 1:700), mo-Cy3(Jackson lab, 715-165-151, 1:500), and rb-Alexa 488(Jackson lab, 711-546-152, 1:700) were added to PBST and reacted at room temperature for 1 hour. Cell nuclei were stained with DAPI (1 µg/mL, Sigma), mounted on slides, scanned with a confocal laser microscope, and photographed. Heo SR et al.(2009) and Han AM t al.(2012) were referred to in the above method.
In the case of cell count confirmation and data analysis, the number of cell nuclei labeled with DAPI and the number of cells stained with each differentiation marker were counted, respectively, and the number of each differentiation marker was expressed as a percentage of the number of cell nuclei. In this case, the number of cells that matched exactly in shape and location and had the shape of a nerve cell was counted. For example, in NeuN cell count measurement, the number of cells with a round shape in a nucleus and overlapping staining with DAPI was counted, and nonspecific signals appearing at the edge of the slide were not included. In data analysis, the control group and the experimental group were compared through one-way analysis of variance (ANOVA). The statistical significance of the data was set as p<0.05.

[2] = system: IBO-administered memory impairment and autism model; assay: Y-shaped maze experiment; format: in vivo, rat; conditions: MANF-AAV-hMSC transplanted into the hippocampus of IBO rats
Method: (§1) Memory impairment and autism models were prepared by administering IBO to the entorhinal cortex of the rats, wherein the IBO destroys granule cells of the dentate gyrus (DG) and pyramidal cells of the hippocampus, which receive nerve signals input from the entorhinal cortex. Specifically, the rats were anesthetized with equitensin (10% ethanol containing 350 mM pentobarbital sodium, 250 mM chloral hydrate, 85 mM MgSO and 40% propylene glycol). The incisor bar of a stereotaxic device (Stoelting Co., U.S.A.) was placed 3.4 mm below the interaural line, and the injection needle angle was fixed at […] right from the center of the sagittal plane. 1.5 ul of IBO (1 mg/ml) was injected into the entorhinal cortex of the rat using the stereotaxic device. The IBO was injected into three locations of first, AP: -8.4, ML: -4.8, DV: -4.6; Second, AP; -8.4, ML: -4.8, DV: 2.3; Third, AP: -8.8, ML: - 3.65, DV: -3.4 (FIG. 7).
After 2-3 IBO injections, each group was randomly classified into an IBO-administrated group (negative control group), and a GFP-AAV-hMSC-administrated group (GFP-AAV) and a MANF-AAV-hMSC-administrated group […] as a control group. A rest period of one week was provided. […]

[3] = system: IBO-administered memory impairment and autism model; assay: Morris water maze experiment; format: in vivo, rat; conditions: MANF-AAV-hMSC transplanted into the hippocampus of IBO rats
Method: as §1, with “1.5 ul of IBO (1 mg/ml) was injected into the entorhinal cortex of the rat using the stereotaxic device. The IBO was injected into three locations of first, AP: -8.4, ML: -4.8, DV: -4.6; Second, AP; -8.4, ML: -4.8, DV: 2.3; Third, AP: -8.8, ML: - 3.65, DV: -3.4 (FIG. 7).” left out
The same number of rats as in each group of Example 6-1 was subjected to the Morris water maze experiment in a round, rust-free and inner surface-white swimming pool (diameter 160 cm; height 60 cm). […] The final experiment measured the time the rat stayed where the platform was for 60 seconds after removing the platform (probe trial). Swimming time and training length were tracked and recorded using a video camera. […] The captured video pictures were analyzed with a video tracking system (Ethovision water maze program, Noldus Information Technology, Wogeningen, The Netherlands). The analyzed information included the time of swimming in the target quadrant, and the number of crossings the imaginary platform to find the removed platform.

B1: MANF: one of 16 or more growth factors secreted into nerve stem cells by cerebrovascular cells; amino acid sequence of SEQ ID NO: 1 (protein)
chain: MRRMWATQGLAVALALSVLPGSRALRPGDCEVCISYLGRFYQDLKDRDVTFSPATIENELIKFCREARGKENRLCYYIGATDDAATKIINEVSKPLAHHIPVEKICEKLKKKDSQICELKYDKQIDLSTVDLKKLRVKELKKILDDWGETCKGCAEKSDYIRKINELMPKYAPKAASARTDL
modifications: MANF
- Ki67-stained proliferating cells [1]: significantly increased
- immature neural cells (TuJ1) [1]: also increased, but there was no statistical significance
- mature neural cells (NeuN) [1]: also increased, but there was no statistical significance
- nestin-stained neural progenitor cells [1]: significantly increased
- memory ability in Y-shaped maze test [2]: memory improvement
- memory ability in Morris water maze test [3]: memory improvement
